Assay results reported in the nanobody polyreactivity screen of Harvey et al. (2022).

Assay: yeast display, Sf9 membrane polyspecificity reagent, FACS + sequencing; frameworks hold sequencing errors
In short: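 Polyreactivity labels are assigned by the sorting gate from which each nanobody was recovered. The gates were low and high (top ~1%), set on anti-HA fluorescence for expression and streptavidin fluorescence for reagent binding. Before sorting, galactose-induced (36–48 hours) yeast display cells were stained for 1 hour at 4 °C with 10% biotinylated, detergent-solubilized Sf9 membrane reagent.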

Sequence | polyreactivity (PSR sort gate)
QVQLVESGGGLVQAGGSLRLSCAASGSIFDSYTMGWYRQAPGKERELVATINRSGGSTYYADSVKGRFTISRDNAKNTVYLQMNSLKPEDTAVYYCANVYPYTPYSSWRSKYDYWGQGTQVTVSS | low polyreactivity
QVQLVESGGGLVQAGGSLRLSCAASGSIFDTNAMRWYRQAPGKERELVAAISFSGVRTYYEDSVKGRFTISRYNAKNTVSLQMYSLKPEDTAVYYCAAESGKYLESRYRYYTRYYYWGQGTEVTVSS | high polyreactivity
QVQLVESGGGLVQAGGSLRLSCAASGSIFDTYAMGWYRQAPGKEREFVAAISGTDGSTYYADSVKGRFTISRDNAKNTVYLQMNSLKPEDTAVYYCNAEPPRGDTVSSGGEMDYWGQGTQVTVSS | low polyreactivity
QVQLVESGGGLVQAGGSLRLSCAASGSIFDTYAMGWYRQAPGKEREFVAAISRNGGSTYYADSVKGRFTISRDNAKNTVYLQMNSLKAEDTAVYYCATDKRHKFDYWGQGTQVTVSS | low polyreactivity
QVQLVESGGGLVQAGGSLRLSCAASGSIFDTYAMGWYRQAPGKERELVAAISSGGRTYYADSVKGRFSISRDNAKNTVYLQMNSLKPEDTAVYYCAVRPRPGYYYWGQGTQVSVSS | high polyreactivity
QVQLVESGGGLVQAGGSLRLSCAASGSIFDTYAMGWYRQAPGKERELVAAITQSGDRTYYADSVKGRFTISRDNAKNTVYLQMNSLKPEDTAVYYCYTRRGSAWSCDYWGQGTQVTVSS | low polyreactivity
QVQLVESGGGLVQAGGSLRLSCAASGSIFDTYAMGWYRQAPGKERELVAAITRRAGSTYYADSVKGRFTISRDNAKNTVYLQMNSLKPEDTPVYYGAAGYDRYPGVIDEYWGQGTEVTVSS | low polyreactivity
QVQLVESGGGLVQAGGSLRLSCAASGSIFDTYAMGWYRQAPGKERELVAAITWSGSSTYYADSVKGRFTISRDNSKNTVYLQMNSLKPEDTAVYYCAKDYYREVTTEYDYWGQGTQVTVSS | high polyreactivity
QVQLVESGGGLVQAGGSLRLSCAASGSIFDTYTMGWYRQAPGKERELVAAITSGTTTTYADSVKGRFTISRDNAKNTVYLQMNSLKPEDTAVYYCAARTSGSFDYCGQGTQVTVSS | low polyreactivity
QVQLVESGGGLVQAGGSLRLSCAASGSIFDVNAMGWSRQPPGKERELVAVISSSDSTDYADSVKGRFTISRDNAKNTVYLQMNSLKPEDTAVYYCAADEYQDRPDDYWGQGTQVTVSS | low polyreactivity
QVQLVESGGGLVQAGGSLRLSCAASGSIFDVNAMGWYRQAPGKQRELVAAISDSGGSTYYADSVKGRFTISRDNAKNTVYLQMNSLKPEDTAVYYCNADWSWYNYYDFDYWGQGTQVTVSS | low polyreactivity
QVQLVESGGGLVQAGGSLRLSCAASGSIFDVYTMGWYRQAPGKERELVAAINTGGGSTYYADSVKGRFTISRDNAKNTVYLQMNSLKPEETAVYYCAASVYHYGPLYYWGQGTQVTVSS | low polyreactivity
QVQLVESGGGLVQAGGSLRLSCAASGSIFDWNALGWYRQAPGKERELVASITGSGGGTNYADSLKGRFTISRDNAKNTVYFQMNSLNPEDTAVYFCNADGLNLDGHEYWGQATQVTVSS | low polyreactivity
QVQLVESGGGLVQAGGSLRLSCAASGSIFDWYAIGWYRQAPGKEGELVAAISSGDSTYYADSVKGRFTISRDNAKNTVVLQMNSLKAEETSVSDCAAVTKLSGIRYNYWGQGSQVTVSS | low polyreactivity
QVQLVESGGGLVQAGGSLRLSCAASGSIFDWYAMGWYRQAPGKEGELVAAISSGDSTYYADSVKGRFTISRDNAKKTVYLQMNSLKPEDTAVYYCAAVTKLSGIRYNYWGQGTQVTVSS | low polyreactivity
QVQLVESGGGLVQAGGSLRLSCAASGSIFDWYAMGWYRQAPGKERELVAAIDSSGSSTYYADSVKGRFTISRDNAKNTVYLQMNSLKPEDTAVYYCAADSDWIRYWFGSLYGSDYWGQGTQVTVSS | low polyreactivity
QVQLVESGGGLVQAGGSLRLSCAASGSIFDWYVMGWYRQPPGKERELVATITRDGSTNYADSVKGRFTISRDNAKNTVYLQMNSLKPEDTAVYYCNAASRAYGYNYWGQGTQVTVSS | low polyreactivity
QVQLVESGGGLVQAGGSLRLSCAASGSIFDYNAMGGYRQAPGKERELVAAISSGGSTYYADSVKGRFTISRDNAKNTVNLQMNSLKPEDTAVYYCAVKFWVVIQFDYWGQGTHVTVSS | low polyreactivity
QVQLVESGGGLVQAGGSLRLSCAASGSIFDYNAMGWYRQAPGKERELVASIRWSGGRTYYADSVKGRFTISRDNAKNTVYLQMNSLKPEDTAVYYCNRKPQEYVLQGSSNGYDYWGQGTQVTVSS | low polyreactivity
QVQLVESGGGLVQAGGSLRLSCAASGSIFDYNAMGWYTQAPGKERELVAAITSGGSTNYADSVKGRFTISRDNAKNTVYLQMNSLKPEDTAVYYCAADHDYYPSNLDYWGQGTQVTVSS | low polyreactivity
QVQLVESGGGLVQAGGSLRLSCAASGSIFDYNTMGWYRQAPGKERELVAVISGTGGSTYYADSVKGRFTISRGNAKNTVYLQMNSLKPEDTAVYYCAADTFVRNQWYLVEYWGQGTQVTVSS | low polyreactivity

Sequence | polyreactivity (PSR sort gate)
QVQLVESGGGLVQAGGSLRLSCAASGSIFDYYAMGWYRQAPGKERELVAAISSSGARTSYADSVKGRFTISRDNAKNTVYLQMNSLKPEDTAVYYCAAPYRSLKTGRYDYWGQGTQVTVSS | high polyreactivity
QVQLVESGGGLVQAGGSLRLSCAASGSIFDYYAMGWYRQAPGKERELVAAISWSGGSTYYADSVKGRFTISRDNAKNTVYLQMNSLKPEDTAVYYCAALSLAYHEYDYWGLGTQVTVSS | high polyreactivity
QVQLVESGGGLVQAGGSLRLSCAASGSIFDYYAMGWYRQAPGKERELVADITSGGSTNYADSVKGRFTISRDNAKNTVYLQMNSLKPEDTAVYYCNALASRYPAYYYWGQGTQVTVSS | low polyreactivity
QVQLVESGGGLVQAGGSLRLSCAASGSIFDYYAMGWYRQAPGKERELVASINSSGTGTYYADSVKGRFTISRDNAKNTVYLQMNSLKPEDTAVYYCATRQAVGYSSGRGYGYWGQGTQVTVSS | low polyreactivity
QVQLVESGGGLVQAGGSLRLSCAASGSIFDYYAMGWYRQAPGKERELVASITWSGGRTSYADSVKGRFTISRDNAKNTVYLQMNSLKPEDTAVYYCAAKLWSYAYQHKRVWYYYWGQGTQVTVSS | high polyreactivity
QVQLVESGGGLVQAGGSLRLSCAASGSIFDYYAMGWYRQAPGKETEFVADICSSGTSTYYADSVKGRFTISRDNAKNTVYLQMNSLKPEDTAVYYCNSELDSWLSYVVAYFARFDYWGQGTQVTVSS | high polyreactivity
QVQLVESGGGLVQAGGSLRLSCAASGSIFDYYTMGWYRQAPGKERELVAAITRSGGRTYYADSVKGRFTISRDYAKNTDYLLMNSLKPEDTAVYNCSTGAVSRFGNGPYDFWGQGTQVTVSS | high polyreactivity
QVQLVESGGGLVQAGGSLRLSCAASGSIFEFNAMGWYRQAPGKERELVAAITWGGGSTYYADSVKGRFTISRDNAKNTVYLQMNSLKPEDTAVYYCNAAYGRYRYDYWGQGTQVTVSS | low polyreactivity
QVQLVESGGGLVQAGGSLRLSCAASGSIFEFNTMGWYRQAPGKERELVAAISSSGGRTYYADSVKGRFTISRDNAKNSVYLQMNSLKPEDTAVYYCNARRFVHNPDYDYWGQGTQVTVSS | high polyreactivity
QVQLVESGGGLVQAGGSLRLSCAASGSIFEGNAMGWYRQAPGKEREFVAAITKRGGSTYYADSVKGRFTISRDNAKITVYLQMNSLKTEDTAVYYCAKGYRRVFGPFYYWGQGTQVTVSS | low polyreactivity
QVQLVESGGGLVQAGGSLRLSCAASGSIFEGYAMGWYRQAPGKERELVAAISWSSARTYYADSVKGRFTISRDNAKNTVYLQMNSLKPEDTAVYYCNAVARNNRNSRQRIPYDYWGQGTQVTVSS | high polyreactivity
QVQLVESGGGLVQAGGSLRLSCAASGSIFEGYVMGWYRQAPGKERELVAAITTGGGSTYYADSVKGRFTISRDNAKKTVYLQMNSLKPEDTAVYYCAKDYWFGYEYWGQGTQVTVSS | low polyreactivity
QVQLVESGGGLVQAGGSLRLSCAASGSIFEGYVMGWYRQAPGKERELVATISFSGGSTYYADSVKGRFTISRDNAKNTVYLQMNSLKPEDTAVYYCNALVYHTKGDYGYWGQGTQVTVSS | low polyreactivity
QVQLVESGGGLVQAGGSLRLSCAASGSIFEGYVMGWYRQEPGKERELVATISFSGGSTYYADSVKGRFTISRDNAKTTVYLQMNSLKPEDTAVYYCNALVYHTKGDYGYWGQGTQVTVSS | low polyreactivity
QVQLVESGGGLVQAGGSLRLSCAASGSIFEINAKGWYRQAPGKERELVADIRRGDSTNYADSVKGRFTISRDNAKNTVYLQMNSLKPEDTAVYYCAAYHRLFDYDYWGQGTQVTVSS | high polyreactivity
QVQLVESGGGLVQAGGSLRLSCAASGSIFEIYAMGWYRQAPGKERELVASITWSGGSTYYADSVKGRFTISRDNAKNTVYLQMNSLKPEDTAVYYCATDKLYGRTVRMDYWGQGTQVTVSS | low polyreactivity
QVQLVESGGGLVQAGGSLRLSCAASGSIFEIYAMGWYRQAPGKERQLVASITWSGGSTYYADSVKGRFTISRDNAKNTVYLQMNSLKPEDTAVYYCATDKLYGRTVRMDYWGQGTQVTVSS | low polyreactivity
QVQLVESGGGLVQAGGSLRLSCAASGSIFENYAMGWYRQAPGKERELVAAISSSGDSTYYADSVKGRFTISRDNAKNTVYLQMNSLKPEDTAVYYCAAEISLSRSDRIESYDYWGQGTQVTVSS | low polyreactivity
QVQLVESGGGLVQAGGSLRLSCAASGSIFEPNAMGWYRQAPGKEREFVAAISGSGGSTYYADSVKGRFTISRDNAKNTVYLQMNSLKPEDTAVYYCATRGKRSYFRTFYYWGQGTQVTVSS | high polyreactivity
QVQLVESGGGLVQAGGSLRLSCAASGSIFEPNAMGWYRQAPGTERELVAAISWNDGDTYYADSVKGRFTISRDNAKNTVYFQMNSLKPEDPAVYYCAAAISLYSYDYWGQGTQVTVSS | low polyreactivity
